Drawing on the supplement of paper PMC12042874, this text covers amyloid nucleation score for 131 substances.

± gives the uncertainty stated by the source.

The nature of this series: amyloid nucleation score (Sup35N fusion, yeast selection) (log enrichment); library NNK3; higher = more nucleation; inactive = no reads after selection. The method, boiled down:
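The nucleation score is the log enrichment of output over input reads, calculated with DiMSum and centred on the mode score of non-aggregating sequences. Sequences with under 100 input reads were excluded. Reads came from Illumina sequencing of plasmid inserts from psi-negative yeast expressing Sup35N fused to peptides of 20 random codons, induced 24 hours with 100 μM copper sulfate and grown 7 days at 30°C without adenine and uracil.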

In turn, PSGTFFNSVVYGRWYKLKRK displayed an amyloid nucleation score of -0.34 ± 0.93.
TYTFLSPVIDYKLYVYQCRT returned an amyloid nucleation score of 1.72 ± 0.067.
For the substance RFLLHLML, the amyloid nucleation score is -0.4 ± 0.45.
In the case of RRRERGASNVDELWF, the amyloid nucleation score entry is “inactive”.
Regarding GTLDNDRVIVWSDLDFSCFR, the amyloid nucleation score entry was “inactive”.
The substance SHNGLKTLNGSFLAYLSCRA registered an amyloid nucleation score of 0.904 ± 0.16.
Turning to AFGLVLLSTLHNASIIPRWF, the amyloid nucleation score result was “inactive”.
As to ALARELIFLLCMNVRLMGFK, the amyloid nucleation score entry was “inactive”.
With NRSEEIFVSSATELTRLIVH, the amyloid nucleation score result is “inactive”.
With SGFVRWRSISFLPNHERLST, the amyloid nucleation score result is “inactive”.
Under GDTRF stands “inactive”; under SLAKFNMNYGTYGLEGFSVW, -0.209 ± 0.81.
Under NVYTYIRPRRVYK stands “inactive”; under FSYAFWVKIIIVFRRFITRK, “inactive”; under RIITLNRHIRRVFRMGCRSM, “inactive”.
Under SVFQWHPFIESKGNLLSTVK stands “inactive”; under HGHSQFL, “inactive”.
With CKMRYEDESWFKWVVDLSFN, the amyloid nucleation score result was “inactive”.
Under CSLVSYSSLLGTCVDGIRDR stands “inactive”.
For the substance CMFFLLPIIAYSV, the amyloid nucleation score result was “inactive”.
With IVYMDECLYQFNGPDVVPMF the entry was “inactive”; with VTVQLCSNLIMGTWRTRNVL, “inactive”; with CRHTLSRHDVTRCNSEVSSL, “inactive”.
Take CSVGSFFRFDIIYWKYAGSL: the amyloid nucleation score was -0.2 ± 0.36.
Turning to RWLLMYLLLRSTATN, the amyloid nucleation score result is “inactive”.
RCLPMG: the amyloid nucleation score result is “inactive”.
Consider KVNAFTCTKSFGLCVSESFT, for which the amyloid nucleation score entry was “inactive”.
On to TMSRRAARMQCAILVPSRLL, for which the amyloid nucleation score entry was “inactive”.
Regarding ERMQHGSLSVRYFKKSSVSG, the amyloid nucleation score entry is “inactive”.
As to PYCNRWFSDRGSWDVHRSWV, the amyloid nucleation score entry was “inactive”.
For TGYLAMWLY, the amyloid nucleation score result is “inactive”.
As for SYMACYFSIAYEYFNSTFDK, the amyloid nucleation score entry was “inactive”.
On to ENYLSPTSKMTMIWGCILWW, for which the amyloid nucleation score entry is “inactive”.
With CCLEILGTLFN the entry was “inactive”.
Consider FCFIHIFNHNSRTNF, for which the amyloid nucleation score entry is “inactive”.
With STWMNTDYGDTTV the figure was -0.277 ± 0.96; with RCYVRFSRSRVVHIMLVYMP, “inactive”; with ADCNWVNNVMSVKGLMSVVM, “inactive”.
As to NVRGEENVKNILSGVL, the amyloid nucleation score entry is “inactive”.
Under QYLSRCLTWSYVTVKSLRSN stands “inactive”; under CMIMRAFRYNVALDMHMLHD, “inactive”.
As for KGYCFAYRQNSVELIP, the amyloid nucleation score result was “inactive”.
For the substance GQFML, the amyloid nucleation score result was “inactive”.
On to FFRSCWCFVLLLNDCMITSL, for which the amyloid nucleation score result was “inactive”.
Turning to EDNRTTVVFTGEC, the amyloid nucleation score entry is “inactive”.
With KGCNYVNNSTAMLSRRSFYS the entry was “inactive”.
Take QFIDRNVWLISSGFRTRFDI: the amyloid nucleation score result is “inactive”.
Turning to YCALLRNAITVV, the amyloid nucleation score result was “inactive”.
VCKVTFMCAFRHDYSKRYYG returned an amyloid nucleation score of 0.35 ± 0.48.
For the substance KTKQIYDGPLGHSYADKCNV, the amyloid nucleation score entry was “inactive”.
Consider EPGILLM, for which the amyloid nucleation score entry was “inactive”.
GGDTPDDRVSNHCLYRHHHV: the amyloid nucleation score result is “inactive”.
Regarding VRMSRYSEWQDFNIPIEVIV, the amyloid nucleation score turned out to be 0.776 ± 0.16.
Under YDMFMVSWLKEIDWMQDDPR stands “inactive”; under YLTVWFTKKLCVLFLFNIWK, “inactive”.
As for SVFDMDSMGTS, the amyloid nucleation score entry was “inactive”.
With LSSIWKGLRGLFIFFWHIKK the entry was “inactive”; with NMGWSSSYH, “inactive”.
Take GFTFNGF: the amyloid nucleation score result is “inactive”.
Turning to LCSFPKH, the amyloid nucleation score result was “inactive”.
For the substance GNSIALSE, the amyloid nucleation score entry was “inactive”.
Consider VLVNGSGRNWEYYISRRFFF, for which the amyloid nucleation score entry was “inactive”.
Take VCIVVGARGGGYVLRTPLRG: the amyloid nucleation score result was “inactive”.
As to REASVECH, the amyloid nucleation score result was “inactive”.
VHTYLSAEWLVFPRHFAVYK: the amyloid nucleation score result was “inactive”.
Under VVHSGWKSLDNLPHLRDVVT stands “inactive”.
Turning to DDSPFLGRFK, the amyloid nucleation score result is “inactive”.
As for NLSGIHIFLVSRLEWVLDNL, the amyloid nucleation score entry is “inactive”.
Regarding GSICYHGWTFKGKVKILNGI, the amyloid nucleation score result was “inactive”.
For SIFCGCLVLLTGNYLLICIS, the amyloid nucleation score is 1.13 ± 0.17.
For TLFEMYNVTFIMKNGLQES, the amyloid nucleation score worked out at 1.96 ± 0.062.
With RSGSLIGAVYRNMVVLNRMG the entry was “inactive”; with RRTPLWSPMVRNLSYALLAG, “inactive”; with FIILQFVGFLHNTGFWYQLG, 0.217 ± 0.25.
In the case of RMGIASIYAIVLQPMIRLWL, the amyloid nucleation score entry was “inactive”.
The substance GSDSVAGHYFSFVYKVIAEF yielded an amyloid nucleation score of 0.292 ± 0.3.
Regarding RSPRFLRELVLGCSNCWFCG, the amyloid nucleation score entry is “inactive”.
In the case of THDAVNFVLRHWAITGNTDM, the amyloid nucleation score entry is “inactive”.
Regarding SSWLLLAGKIW, the amyloid nucleation score entry was “inactive”.
With DGFIWAQGLTLIFMRSNMKR the figure was 2.42 ± 0.055; with RAITSVSYVWTGRCL, 0.803 ± 0.14.
On to SGDPGGHQSRR, for which the amyloid nucleation score result is “inactive”.
In the case of KNREVANYNDMYSDPILG, the amyloid nucleation score result is “inactive”.
With VCNSYCMPRPRILQSQGGMG the entry was “inactive”; with GIYRLGVNHGMFSCLM, “inactive”.
With TPLDDLMCQLCSGYPLVILP, the amyloid nucleation score entry was “inactive”.
On to SHHSHSNDVALGSSISF, for which the amyloid nucleation score result was “inactive”.
With MYNLNVLNE, the amyloid nucleation score entry is “inactive”.
For IVITHANTWMLLLVFPITAN, the amyloid nucleation score result is “inactive”.
Regarding EYSRMSSNQMVYSLVIFHNL, the amyloid nucleation score was 0.509 ± 0.33.
On to CLYIKVFEFNS, for which the amyloid nucleation score worked out at 2.16 ± 0.076.
As for HMSSLITVS, the amyloid nucleation score entry is “inactive”.
FIVDVYICAVSLLVGFLDAE: the amyloid nucleation score entry is “inactive”.
Regarding CEEPFLNCHFLDY, the amyloid nucleation score entry was “inactive”.
With FRNWIWVLYEV the entry was “inactive”; with VLCCLDYIYPVGALGYYACI, “inactive”; with SVCMVFYPVEREKEDQKSVE, “inactive”.
As for HGFLFCGFSNYKCVQGNMTF, the amyloid nucleation score result was “inactive”.
Turning to MSLWCTITGECKGDGWY, the amyloid nucleation score result was “inactive”.
For the substance VFQRVNISVCINVVKFMSSM, the amyloid nucleation score was found to be 1.65 ± 0.069.
With IDRSLLSGFSNLHICSICCT the figure was 1.2 ± 0.12.
In the case of CPGVHWHDVK, the amyloid nucleation score result is “inactive”.
As to WMRVPRMWEGKANFISG, the amyloid nucleation score result is “inactive”.
On to YIFVT, for which the amyloid nucleation score result was “inactive”.
With IAIKNSSRRYMNYERLFTKL the entry was “inactive”; with PVRIEYQ, “inactive”.
TKCVLNGRRLSLCPLDNSMR: the amyloid nucleation score result was “inactive”.
Consider HICIMNMLRFRCIWIPIFYM, for which the amyloid nucleation score entry was “inactive”.
The substance GNYRLSLHVVL showed an amyloid nucleation score of 1.21 ± 0.18.
Under YSKCNRIFFTEDLF stands -0.295 ± 0.8; under TPRLSMDHTFVRWDCV, “inactive”; under MLTFLVYSCGTGWVCPLLRK, “inactive”.
On to IHLTCLWVYQDLLV, for which the amyloid nucleation score entry is “inactive”.
Consider LMPCALFSGVYEAGRHGSFL, for which the amyloid nucleation score was 0.462 ± 0.34.
With CFPIPVWRGDLNGAPRYAQM the entry was “inactive”; with CDLMAKGSCIEQPQPSVAGK, “inactive”; with MIRVSHNRNASDQLRFASSL, “inactive”.
Take NYVGSSPGVGSRYTCLKSNV: the amyloid nucleation score result is “inactive”.
As to FFANKYSLFAVVTMLANFLY, the amyloid nucleation score entry is “inactive”.
Consider WHTSSQVSEGLEHAYVCKFE, for which the amyloid nucleation score entry was “inactive”.
CIFMRIYGVC: the amyloid nucleation score result is “inactive”.
QYFFNRKL: the amyloid nucleation score entry is “inactive”.
On to RMSVSSFRVVWSTIAYTKST, for which the amyloid nucleation score result was “inactive”.
On to PAPMSVFRHVNFFVKFSPSS, for which the amyloid nucleation score result is “inactive”.
With LVICGYDIRN the entry was “inactive”; with SVSADGGFCIHGQTRPMAGL, 1.21 ± 0.095.
Under DMSSSGITGTEFRCNYYHEY stands “inactive”.
Consider CIPPCW, for which the amyloid nucleation score entry is “inactive”.
Under WNNYI stands “inactive”.
On to WEELDYNSDPLLAGSVTDYM, for which the amyloid nucleation score result is “inactive”.
As for VLLSRMIYALPGYSVL, the amyloid nucleation score turned out to be 1.93 ± 0.075.
